Experimental data as given in patent US20150297672A1, “Alpha- and gamma-MSH analogues” (TXP Pharma GmbH, priority 2014, published 2015).
Each block holds one binder with its values, some of them ahead of it.

Molecular target: human melanocortin receptor type 1 (MC1r) (human) (UniProt Q01726)
Assay: cell-based or functional assay

Chain of human melanocortin receptor type 1 (MC1r) (human) (Q01726 whole entry): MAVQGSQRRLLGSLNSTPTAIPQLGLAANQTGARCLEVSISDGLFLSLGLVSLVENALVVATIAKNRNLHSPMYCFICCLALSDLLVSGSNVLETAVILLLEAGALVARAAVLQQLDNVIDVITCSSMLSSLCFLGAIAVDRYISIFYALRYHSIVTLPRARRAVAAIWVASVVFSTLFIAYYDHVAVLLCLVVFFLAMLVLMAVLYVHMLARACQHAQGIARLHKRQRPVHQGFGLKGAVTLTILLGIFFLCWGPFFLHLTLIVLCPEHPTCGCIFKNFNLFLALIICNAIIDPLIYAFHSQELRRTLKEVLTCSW

EC50, cAMP production: 2.12 nM
Emax (max efficacy expressed as percent of αMSH), cAMP production: 72 % of αMSH
maximal efficacy (Emax), cAMP production: 3 nM
B1: Ac(Lys)6-αMSH (Ac(Lys)6-Ser-Tyr-Ser-Met-Glu-His-Phe-Arg-Trp-Gly-Lys-Pro-Val-NH2; Ac(Lys)6-SEQ ID NO:2) (peptide)
peptide: Ac-KKKKKKSYSMEHFRWGKPV-NH2

EC50, cAMP production: 1.35 nM
Emax (max efficacy expressed as percent of αMSH), cAMP production: 62 % of αMSH
B2: Ac(Lys)6-NDP-αMSH (Ac(Lys)6-Ser-Tyr-Ser-Nle Glu-His-(D-Phe)-Arg-Trp-Gly-Lys-Pro-Val-NH2) (peptide)
peptide: KKKKKKSYSXEHFRWGKPV
modifications: N-terminal acetyl; Nle (norleucine) at position 10 (written X); D-Phe at position 13; C-terminal amide
